{"source": "paper PMC4432619", "about": "“The structure of FMNL2–Cdc42 yields insights into the mechanism of lamellipodia and filopodia formation” (Nature Communications, 2015)", "binders": {"B1": {"name": "FMNL1NCC (1–458, Δ172–198) (domain or fragment, human, UniProt O95466 1-458, looked up)", "chain": "MGNAAGSAEQPAGPAAPPPKQPAPPKQPMPAAGELEERFNRALNCMNLPPDKVQLLSQYDNEKKWELICDQERFQVKNPPAAYIQKLKSYVDTGGVSRKVAADWMSNLGFKRRVQESTQVLRELETSLRTNHIGWVQEFLNEENRGLDVLLEYLAFAQCSVTYDMESTDNGSRHLTIKLTPAHSRKALRNSRIVSQKDDVHVCIMCLRAIMNYQSGFSLVMNHPACVNEIALSLNNKNPRTKALVLELLAAVCLVRGGHDIILAAFDNFKEVCGEQHRFEKLMEYFRNEDSNIDFMVACMQFINIVVHSVENMNFRVFLQYEFTHLGLDLYLERLRLTESDKLQVQIQAYLDNIFDVGALLEDTETKNAVLEHMEELQEQVALLTERLRDAENESMAKIAELEKQLSQARKELETLRERFSESTAMGPSRR", "notes": "also called FMNL1NCC(Δ172–198); FMNL1 (1–458, Δ172–198); source: E. coli, purified (GSH Sepharose, TEV cleavage, gel filtration); not shown: GST, N-terminal, cleaved"}, "B2": {"name": "Full-length, recombinant FMNL1 protein (natural protein, human, UniProt O95466 1-1100, looked up)", "chain": "MGNAAGSAEQPAGPAAPPPKQPAPPKQPMPAAGELEERFNRALNCMNLPPDKVQLLSQYDNEKKWELICDQERFQVKNPPAAYIQKLKSYVDTGGVSRKVAADWMSNLGFKRRVQESTQVLRELETSLRTNHIGWVQEFLNEENRGLDVLLEYLAFAQCSVTYDMESTDNGASNSEKNKPLEQSVEDLSKGPPSSVPKSRHLTIKLTPAHSRKALRNSRIVSQKDDVHVCIMCLRAIMNYQSGFSLVMNHPACVNEIALSLNNKNPRTKALVLELLAAVCLVRGGHDIILAAFDNFKEVCGEQHRFEKLMEYFRNEDSNIDFMVACMQFINIVVHSVENMNFRVFLQYEFTHLGLDLYLERLRLTESDKLQVQIQAYLDNIFDVGALLEDTETKNAVLEHMEELQEQVALLTERLRDAENESMAKIAELEKQLSQARKELETLRERFSESTAMGPSRRPPEPEKAPPAAPTRPSALELKVEELEEKGLIRILRGPGDAVSIEILPVAVATPSGGDAPTPGVPTGSPSPDLAPAAEPAPGAAPPPPPPLPGLPSPQEAPPSAPPQAPPLPGSPEPPPAPPLPGDLPPPPPPPPPPPGTDGPVPPPPPPPPPPPGGPPDALGRRDSELGPGVKAKKPIQTKFRMPLLNWVALKPSQITGTVFTELNDEKVLQELDMSDFEEQFKTKSQGPSLDLSALKSKAAQKAPSKATLIEANRAKNLAITLRKGNLGAERICQAIEAYDLQALGLDFLELLMRFLPTEYERSLITRFEREQRPMEELSEEDRFMLCFSRIPRLPERMTTLTFLGNFPDTAQLLMPQLNAIIAASMSIKSSDKLRQILEIVLAFGNYMNSSKRGAAYGFRLQSLDALLEMKSTDRKQTLLHYLVKVIAEKYPQLTGFHSDLHFLDKAGSVSLDSVLADVRSLQRGLELTQREFVRQDDCMVLKEFLRANSPTMDKLLADSKTAQEAFESVVEYFGENPKTTSPGLFFSLFSRFIKAYKKAEQEVEQWKKEAAAQEAGADTPGKGEPPAPKSPPKARRPQMDLISELKRRQQKEPLIYESDRDGAIEDIITVIKTVPFTARTGKRTSRLLCEASLGEEMPL", "notes": "also called full-length FMNL1; source: expressed from insect cells"}, "B3": {"name": "Cdc42 (1–179) (domain or fragment)", "chain": "not shown", "notes": "Loaded with the non-hydrolysable GTP analogue GppNHp and Mg2+ in all rows written here; also called Cdc42·GppNHp; active Cdc42; source: E. coli, GST fusion, purified; nucleotide exchanged for GppNHp"}}, "key": {"[1]": {"biological_target": "the molecule itself", "test": "crystal structure; complexes formed by equimolar mixing of the FMNL fragment with GppNHp-loaded Cdc42 (1–179) in high salt buffer and overnight dialysis at 277 K into 20 mM Tris/HCl pH 8.0, 150 mM NaCl, 5 mM MgCl2, 1 mM DTE; hanging drop vapour diffusion at 293 K"}, "[2]": {"biological_target": "the molecule itself", "test": "SEC; size exclusion chromatography of full-length recombinant FMNL1 from insect cells; data not shown"}, "[3]": {"biological_target": "B1", "test": "crystal structure; complexes formed by equimolar mixing of the FMNL fragment with GppNHp-loaded Cdc42 (1–179) in high salt buffer and overnight dialysis at 277 K into 20 mM Tris/HCl pH 8.0, 150 mM NaCl, 5 mM MgCl2, 1 mM DTE; hanging drop vapour diffusion at 293 K", "conditions": "both partners purified"}, "[4]": {"biological_target": "myrFMNL2N (myristoylated FMNL2N, residues 2–379) (human, UniProt Q96PY5 2-379, N-terminal myristoylation (myrFMNL2N))", "sequence (Q96PY5 2-379)": "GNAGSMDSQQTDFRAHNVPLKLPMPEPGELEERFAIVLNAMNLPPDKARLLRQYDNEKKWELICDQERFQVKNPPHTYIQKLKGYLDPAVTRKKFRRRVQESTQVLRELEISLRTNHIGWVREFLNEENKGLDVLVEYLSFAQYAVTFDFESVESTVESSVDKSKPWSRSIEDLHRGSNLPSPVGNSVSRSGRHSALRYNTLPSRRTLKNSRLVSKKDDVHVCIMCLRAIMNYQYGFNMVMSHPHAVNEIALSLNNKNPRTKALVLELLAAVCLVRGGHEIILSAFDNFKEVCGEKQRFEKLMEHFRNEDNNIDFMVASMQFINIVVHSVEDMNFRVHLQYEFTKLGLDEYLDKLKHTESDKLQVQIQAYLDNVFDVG", "test": "ITC; Cdc42·GppNHp titrated to myrFMNL2N at liposomes; 25 °C", "conditions": "both partners purified"}, "[5]": {"biological_target": "T1, FMNL2N(Δloop) (residues 1–379, Δaa 144–218) (human, UniProt Q96PY5 1-379, Δaa 144–218)", "T1 construct": "source: E. coli, purified (GSH Sepharose, TEV cleavage, gel filtration); not shown: GST, N-terminal, cleaved", "T1 sequence (Q96PY5 other isoform, or with tags, fused parts or gaps Δaa 144–218 | Δaa 144–218 | mutant)": "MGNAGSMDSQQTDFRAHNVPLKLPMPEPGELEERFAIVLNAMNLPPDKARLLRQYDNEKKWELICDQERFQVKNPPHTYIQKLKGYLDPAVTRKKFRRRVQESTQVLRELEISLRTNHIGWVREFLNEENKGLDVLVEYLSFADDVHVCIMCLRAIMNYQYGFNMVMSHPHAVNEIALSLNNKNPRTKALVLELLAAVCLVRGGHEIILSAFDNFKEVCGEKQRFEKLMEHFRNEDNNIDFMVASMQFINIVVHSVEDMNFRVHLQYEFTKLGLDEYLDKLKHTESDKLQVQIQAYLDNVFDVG", "test": "ITC; GppNHp-loaded GTPase at 500 μM injected from the syringe into 50 μM FMNL in the cell; 20 mM Tris/HCl pH 8, 150 mM NaCl, 5 mM MgCl2, 1 mM DTE, 298 K; MicroCal iTC200", "conditions": "both partners purified"}}}
{"binder": "B1", "values": [{"measurement": "binding result", "setting": "[1]", "result": "binds"}]}
{"binder": "B2", "values": [{"measurement": "stoichiometry N", "setting": "[2]", "result": 2}]}
{"binder": "B3", "values": [{"measurement": "binding result", "setting": "[3]", "result": "binds"}, {"measurement": "Kd", "setting": "[4]", "result": "1790 ± 760", "unit": "nM"}, {"measurement": "dH", "setting": "[4]", "result": "-2.77 ± 0.29", "unit": "kcal/mol"}, {"measurement": "stoichiometry N", "setting": "[4]", "result": 0.93}, {"measurement": "Kd", "setting": "[5]", "result": "1340 ± 170", "unit": "nM"}, {"measurement": "dH", "setting": "[5]", "result": "-2.39 ± 0.04", "unit": "kcal/mol"}, {"measurement": "stoichiometry N", "setting": "[5]", "result": 1}]}
